Columns and labels:
[1] = target: T1, biotinylated hepatocyte growth factor receptor (HGFR) (Homo sapiens (assumed; species not …, UniProt P08581, biotin); assay: flow cytometry of antibody-coated beads; IgG (0.076 ug/mL) captured on Protein A Dynabeads overnight; biotinylated HGFR in PBSB at a range of concentrations at 10x molar excess, 3 h, room temperature; detected with streptavidin-AF647; median fluorescence; details: both partners purified
T1 construct: hepatocyte growth factor receptor (c-Met, tyrosine-protein kinase Met); bought biotinylated protein; The library sorting and the scFab measurements on yeast used another construct (extracellular domain as Fc fusion, Acro Biosciences MET-H5256); also called c-Met; tyrosine-protein kinase Met; source: bought: Sino Biological 10692-H27H-B

[2] = target: T1, biotinylated hepatocyte growth factor …; assay: flow cytometry of antibody-coated beads; single point; IgG (15 ug/mL) captured on Protein A Dynabeads overnight at 4 C; 1 nM biotinylated HGFR or 0.1 mg/mL biotinylated ovalbumin in PBSB, 3 h, room temperature; streptavidin-AF647; scores normalised between emibetuzumab (high) and elotuzumab (low); details: both partners purified

T1 sequence (P08581 25-932): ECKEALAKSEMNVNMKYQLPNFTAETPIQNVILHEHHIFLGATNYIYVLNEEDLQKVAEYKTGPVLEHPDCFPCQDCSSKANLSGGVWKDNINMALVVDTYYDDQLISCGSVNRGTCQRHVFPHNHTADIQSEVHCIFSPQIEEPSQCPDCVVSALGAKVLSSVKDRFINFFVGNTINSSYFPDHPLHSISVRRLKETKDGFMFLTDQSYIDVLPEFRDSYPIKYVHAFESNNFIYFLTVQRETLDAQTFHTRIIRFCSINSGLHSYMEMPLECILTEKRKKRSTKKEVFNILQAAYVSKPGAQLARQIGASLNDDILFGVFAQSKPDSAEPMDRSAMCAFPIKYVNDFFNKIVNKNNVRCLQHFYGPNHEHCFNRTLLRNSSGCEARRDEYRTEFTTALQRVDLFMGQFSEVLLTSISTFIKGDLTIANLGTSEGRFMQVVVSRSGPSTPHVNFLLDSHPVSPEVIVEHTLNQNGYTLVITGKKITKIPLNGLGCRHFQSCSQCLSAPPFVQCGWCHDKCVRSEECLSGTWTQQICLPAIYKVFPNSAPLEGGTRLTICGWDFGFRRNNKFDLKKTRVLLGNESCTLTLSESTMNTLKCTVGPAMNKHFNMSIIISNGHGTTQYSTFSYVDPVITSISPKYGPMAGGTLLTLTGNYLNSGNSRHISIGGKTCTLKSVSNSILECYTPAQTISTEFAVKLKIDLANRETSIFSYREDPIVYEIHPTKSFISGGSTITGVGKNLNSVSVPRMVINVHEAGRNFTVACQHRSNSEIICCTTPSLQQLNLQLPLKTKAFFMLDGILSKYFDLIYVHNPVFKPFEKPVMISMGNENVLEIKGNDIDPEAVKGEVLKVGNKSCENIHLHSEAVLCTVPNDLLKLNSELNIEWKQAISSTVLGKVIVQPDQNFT

Row | Binder | EC50 [1] [nM] | antigen binding at 1 nM HGFR relative to wild type [2]
1 | emibetuzumab (wild type), soluble IgG1 (antibody, V domains shown) VH: QVQLVQSGAEVKKPGASVKVSCKASGYTFTDYYMHWVRQAPGQGLEWMGRVNPNRRGTTYNQKFEGRVTMTTDTSTSTAYMELRSLRSDDTAVYYCARANWLDYWGQGTTVTVSS VL: DIQMTQSPSSLSASVGDRVTITCSVSSSVSSIYLHWYQQKPGKAPKLLIYSTSNLASGVPSRFSGSGSGTDFTLTISSLQPEDFATYYCQVYSGYPLTFGGGTKVEIK | 4.4 | 
2 | EM2, emibetuzumab variant, soluble IgG1 (antibody, V domains shown) VH: QVQLVQSGAEVKKPGASVKVSCKASGYTFTDYYMHWVRQAPGQGLEWMGRVNPNGRGTTYNQKFEGRVTMTTDTSTSTAYMELRSLRSDDTAVYYCARSNLLEDWGQGTTVTVSS VL: DIQMTQSPSSLSASVGDRVTITCSVSSSVSSIYLHWYQQKPGKAPKLLIYSTSNLASGVPSRFSGSGSGTDFTLTISSLQPEDFATYYCQVYSGYPLTFGGGTKVEIK | 2.4 | 1.28 x of wild type
3 | EM1, emibetuzumab variant, soluble IgG1 (antibody, V domains shown) VH: QVQLVQSGAEVKKPGASVKVSCKASGYTFTDYYMHWVRQAPGQGLEWMGRVNPNGRGTTYNQKFEGRVTMTTDTSTSTAYMELRSLRSDDTAVYYCARSNLLDDWGQGTTVTVSS VL: DIQMTQSPSSLSASVGDRVTITCSVSSSVSSIYLHWYQQKPGKAPKLLIYSTSNLASGVPSRFSGSGSGTDFTLTISSLQPEDFATYYCQVYSGYPLTFGGGTKVEIK | 2.6 | 1.2 x of wild type
